Test results published in patent publication US20200062863A1 (CSL BEHRING, published 2020).
Numbering of substitutions follows the chain as printed.

Tests used:
Test in all cases: Western blot of culture supernatant (non-reducing SDS-PAGE) probed with 3F7 mAb, anti-human IgG-FITC
G472S = biological target: T1, G472S
T1 construct: also called Mu-FXII G472S mutant with C-terminal 8xHis-tag; mutant k)
T1 single chain: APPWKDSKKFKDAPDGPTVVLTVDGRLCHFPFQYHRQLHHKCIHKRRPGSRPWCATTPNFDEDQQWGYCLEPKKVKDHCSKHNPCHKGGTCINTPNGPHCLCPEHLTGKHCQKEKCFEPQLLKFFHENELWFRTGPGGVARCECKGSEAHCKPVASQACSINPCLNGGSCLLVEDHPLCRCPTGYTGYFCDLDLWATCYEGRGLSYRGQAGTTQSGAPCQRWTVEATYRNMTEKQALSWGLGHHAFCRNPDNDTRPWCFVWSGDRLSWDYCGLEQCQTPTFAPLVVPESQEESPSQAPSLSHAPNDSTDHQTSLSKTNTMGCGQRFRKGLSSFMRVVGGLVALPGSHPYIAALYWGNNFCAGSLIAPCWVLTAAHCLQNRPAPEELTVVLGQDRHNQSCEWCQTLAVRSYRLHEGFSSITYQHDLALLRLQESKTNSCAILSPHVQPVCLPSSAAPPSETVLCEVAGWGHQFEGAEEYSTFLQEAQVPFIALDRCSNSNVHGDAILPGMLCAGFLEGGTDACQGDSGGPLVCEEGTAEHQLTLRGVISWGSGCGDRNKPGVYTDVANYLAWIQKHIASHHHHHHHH
Procedure: (§1) Proteins were then transferred electrophoretically onto nitrocellulose filters and blocked for 1 hour in 5% Milk powder in Tris-buffered saline with 0.05% Tween-20 (TTBS). Filters were then incubated for 1 hour with either 3F7 mAb or an anti-His mAb 3H3 (both at […] in TTBS with 5% Milk powder), washed thoroughly with TTBS, then incubated for a further hour with anti-human IgG-FITC or anti-mouse IgG-FITC, respectively (Millipore, USA; both at 0.25 mg/ml in TTBS with 5% Milk powder). Following further washing of membranes in TTBS, Ab-FITC bound proteins were visualized using a Typhoon variable mode analyzer (GE Healthcare, USA).

N516S = biological target: T2, N516S
T2 construct: also called Mu-FXII N516S mutant with C-terminal 8xHis-tag; mutant l)
T2 single chain: T1 single chain with S453G, N497S
Procedure: as §1

R427H = biological target: T3, R427H
T3 construct: also called Mu-FXII R427H mutant with C-terminal 8xHis-tag; mutant e)
T3 single chain: T1 single chain with R408H, S453G
Procedure: as §1

S452G = biological target: T4, S452G
T4 construct: also called Mu-FXII S452G mutant with C-terminal 8xHis-tag; mutant i)
T4 single chain: T1 single chain with S433G, S453G
Procedure: as §1

binding result (G472S): binds
binding result (N516S): binds
binding result (R427H): binds
binding result (S452G): binds
B1: monoclonal antibody 3F7 (fully human IgG4/lambda) (antibody, V domains shown)
VH: EVQLLESGGGLVQPGGSLRLSCAASGFTFSKYIMQWVRQAPGKGLEWVSGIRPSGGTTVYADSVKGRFTISRDNSKNTLYLQMNSLRAEDTAVYYCARALPRSGYLISPHYYYYALDVWGQGTTVTVSS
VL: QSELTQPPSASGTPGQRVTISCSGSSSNIGRNYVYWYQQVPGTAPKLLIYSNNQRPSGVPDRFSGSKSGTSASLVISGLRSEDEADYYCAAWDASLRGVFGGGTKLTVLG
notes: also called 3F7 mAb; MAb 3F7
